Reference: article PMC4933879

Assays:
[1] = biological target: T1, tubulin covalently linked to a biotinylated stathmin-like peptide; assay: ELISA; settings: chain shown with the change, buffer incubation after binding, read off a plot
[2] = biological target: T1, tubulin covalently linked to a …; assay: ELISA (off-rate estimation); settings: chain shown with the change, incubation with 100 nM soluble tubulin to prevent rebinding, read off a plot
[3] = 2 nM biotinylated peptide-coupled tubulin for coating, parent: est. 0.082
[4] = 10 nM biotinylated peptide-coupled tubulin for coating, parent: est. 0.32
[5] = 2 nM biotinylated peptide-coupled tubulin for coating, parent: est. 0.046
[6] = 10 nM biotinylated peptide-coupled tubulin for coating, parent: est. 0.11

B1: DARPin D1 H118R (protein)
chain: MRGSHHHHHHGSDLGKKLLEAARAGQDDEVRILMANGADVNATDASGLTPLHLAATYGHLEIVEVLLKHGADVNAIDIMGSTPLHLAALIGHLEIVEVLLKHGADVNAVDTWGDTPLRLAAIMGHLEIVEVLLKHGADVNAQDKFGKTAFDISIDNGNEDLAEILQKLN
- response [1, 3]: 0.71 AU
- response [1, 4]: 0.76 AU
- response [2, 5]: 0.45 AU
- response [2, 6]: 0.76 AU

B2: DARPin D1 I152T (protein)
chain: MRGSHHHHHHGSDLGKKLLEAARAGQDDEVRILMANGADVNATDASGLTPLHLAATYGHLEIVEVLLKHGADVNAIDIMGSTPLHLAALIGHLEIVEVLLKHGADVNAVDTWGDTPLHLAAIMGHLEIVEVLLKHGADVNAQDKFGKTAFDTSIDNGNEDLAEILQKLN
- response [1, 3]: 0.48 AU
- response [1, 4]: 0.79 AU
- response [2, 5]: 0.075 AU
- response [2, 6]: 0.44 AU

B3: DARPin D1 E127K (protein)
chain: MRGSHHHHHHGSDLGKKLLEAARAGQDDEVRILMANGADVNATDASGLTPLHLAATYGHLEIVEVLLKHGADVNAIDIMGSTPLHLAALIGHLEIVEVLLKHGADVNAVDTWGDTPLHLAAIMGHLKIVEVLLKHGADVNAQDKFGKTAFDISIDNGNEDLAEILQKLN
- response [1, 4]: 0.42 AU
- response [2, 6]: 0.11 AU

B4: DARPin D1 H118R; I122V (protein)
chain: MRGSHHHHHHGSDLGKKLLEAARAGQDDEVRILMANGADVNATDASGLTPLHLAATYGHLEIVEVLLKHGADVNAIDIMGSTPLHLAALIGHLEIVEVLLKHGADVNAVDTWGDTPLRLAAVMGHLEIVEVLLKHGADVNAQDKFGKTAFDISIDNGNEDLAEILQKLN
- response [1, 4]: 0.73 AU
- response [2, 6]: 0.69 AU

B5: DARPin D1 N158S (protein)
chain: MRGSHHHHHHGSDLGKKLLEAARAGQDDEVRILMANGADVNATDASGLTPLHLAATYGHLEIVEVLLKHGADVNAIDIMGSTPLHLAALIGHLEIVEVLLKHGADVNAVDTWGDTPLHLAAIMGHLEIVEVLLKHGADVNAQDKFGKTAFDISIDNGSEDLAEILQKLN
- response [1, 3]: 0.15 AU
- response [1, 4]: 0.59 AU
- response [2, 5]: 0.045 AU
- response [2, 6]: 0.14 AU

B6: DARPin D1 E127K; V131A (protein)
chain: MRGSHHHHHHGSDLGKKLLEAARAGQDDEVRILMANGADVNATDASGLTPLHLAATYGHLEIVEVLLKHGADVNAIDIMGSTPLHLAALIGHLEIVEVLLKHGADVNAVDTWGDTPLHLAAIMGHLKIVEALLKHGADVNAQDKFGKTAFDISIDNGNEDLAEILQKLN
- response [1, 4]: 0.31 AU
- response [2, 6]: 0.075 AU

B7: DARPin D1 F150Y; I152T; N158S (protein)
chain: MRGSHHHHHHGSDLGKKLLEAARAGQDDEVRILMANGADVNATDASGLTPLHLAATYGHLEIVEVLLKHGADVNAIDIMGSTPLHLAALIGHLEIVEVLLKHGADVNAVDTWGDTPLHLAAIMGHLEIVEVLLKHGADVNAQDKFGKTAYDTSIDNGSEDLAEILQKLN
- response [1, 4]: 0.75 AU
- response [2, 6]: 0.69 AU

B8: DARPin D1 F150Y (protein)
chain: MRGSHHHHHHGSDLGKKLLEAARAGQDDEVRILMANGADVNATDASGLTPLHLAATYGHLEIVEVLLKHGADVNAIDIMGSTPLHLAALIGHLEIVEVLLKHGADVNAVDTWGDTPLHLAAIMGHLEIVEVLLKHGADVNAQDKFGKTAYDISIDNGNEDLAEILQKLN
- response [1, 4]: 0.26 AU
- response [2, 6]: 0.13 AU

B9: DARPin D1 I32V (protein)
chain: MRGSHHHHHHGSDLGKKLLEAARAGQDDEVRVLMANGADVNATDASGLTPLHLAATYGHLEIVEVLLKHGADVNAIDIMGSTPLHLAALIGHLEIVEVLLKHGADVNAVDTWGDTPLHLAAIMGHLEIVEVLLKHGADVNAQDKFGKTAFDISIDNGNEDLAEILQKLN
- response [1, 4]: 0.31 AU
- response [2, 6]: 0.11 AU

B10: DARPin D1 I78L (protein)
chain: MRGSHHHHHHGSDLGKKLLEAARAGQDDEVRILMANGADVNATDASGLTPLHLAATYGHLEIVEVLLKHGADVNAIDLMGSTPLHLAALIGHLEIVEVLLKHGADVNAVDTWGDTPLHLAAIMGHLEIVEVLLKHGADVNAQDKFGKTAFDISIDNGNEDLAEILQKLN
- response [1, 4]: 0.4 AU
- response [2, 6]: 0.13 AU

B11: DARPin D1 I122V (protein)
chain: MRGSHHHHHHGSDLGKKLLEAARAGQDDEVRILMANGADVNATDASGLTPLHLAATYGHLEIVEVLLKHGADVNAIDIMGSTPLHLAALIGHLEIVEVLLKHGADVNAVDTWGDTPLHLAAVMGHLEIVEVLLKHGADVNAQDKFGKTAFDISIDNGNEDLAEILQKLN
- response [1, 4]: 0.22 AU
- response [2, 6]: 0.12 AU

B12: DARPin D1 N74S; I76S; I78L (protein)
chain: MRGSHHHHHHGSDLGKKLLEAARAGQDDEVRILMANGADVNATDASGLTPLHLAATYGHLEIVEVLLKHGADVSASDLMGSTPLHLAALIGHLEIVEVLLKHGADVNAVDTWGDTPLHLAAIMGHLEIVEVLLKHGADVNAQDKFGKTAFDISIDNGNEDLAEILQKLN
- response [1, 4]: 0.34 AU
- response [2, 6]: 0.18 AU

B13: DARPin D1 V131A (protein)
chain: MRGSHHHHHHGSDLGKKLLEAARAGQDDEVRILMANGADVNATDASGLTPLHLAATYGHLEIVEVLLKHGADVNAIDIMGSTPLHLAALIGHLEIVEVLLKHGADVNAVDTWGDTPLHLAAIMGHLEIVEALLKHGADVNAQDKFGKTAFDISIDNGNEDLAEILQKLN
- response [1, 4]: 0.24 AU
- response [2, 6]: 0.1 AU

B14: DARPin D1 I76S (protein)
chain: MRGSHHHHHHGSDLGKKLLEAARAGQDDEVRILMANGADVNATDASGLTPLHLAATYGHLEIVEVLLKHGADVNASDIMGSTPLHLAALIGHLEIVEVLLKHGADVNAVDTWGDTPLHLAAIMGHLEIVEVLLKHGADVNAQDKFGKTAFDISIDNGNEDLAEILQKLN
- response [1, 4]: 0.3 AU
- response [2, 6]: 0.15 AU

B15: DARPin D1 I152T; N158S (protein)
chain: MRGSHHHHHHGSDLGKKLLEAARAGQDDEVRILMANGADVNATDASGLTPLHLAATYGHLEIVEVLLKHGADVNAIDIMGSTPLHLAALIGHLEIVEVLLKHGADVNAVDTWGDTPLHLAAIMGHLEIVEVLLKHGADVNAQDKFGKTAFDTSIDNGSEDLAEILQKLN
- response [1, 3]: 0.61 AU
- response [2, 5]: 0.27 AU

B16: DARPin D1 N74S (protein)
chain: MRGSHHHHHHGSDLGKKLLEAARAGQDDEVRILMANGADVNATDASGLTPLHLAATYGHLEIVEVLLKHGADVSAIDIMGSTPLHLAALIGHLEIVEVLLKHGADVNAVDTWGDTPLHLAAIMGHLEIVEVLLKHGADVNAQDKFGKTAFDISIDNGNEDLAEILQKLN
- response [1, 4]: 0.28 AU
- response [2, 6]: 0.18 AU

B17: DARPin D1 I32V; N74S; I76S; I78L; H118R; I122V; E127K; V131A; F150Y; I152T; N158S (protein)
chain: MRGSHHHHHHGSDLGKKLLEAARAGQDDEVRVLMANGADVNATDASGLTPLHLAATYGHLEIVEVLLKHGADVSASDLMGSTPLHLAALIGHLEIVEVLLKHGADVNAVDTWGDTPLRLAAVMGHLKIVEALLKHGADVNAQDKFGKTAYDTSIDNGSEDLAEILQKLN
- response [1, 3]: 0.72 AU
- response [1, 4]: 0.74 AU
- response [2, 5]: 0.38 AU
- response [2, 6]: 0.74 AU

B18: DARPin D1 H118R; I152T; N158S (protein)
chain: MRGSHHHHHHGSDLGKKLLEAARAGQDDEVRILMANGADVNATDASGLTPLHLAATYGHLEIVEVLLKHGADVNAIDIMGSTPLHLAALIGHLEIVEVLLKHGADVNAVDTWGDTPLRLAAIMGHLEIVEVLLKHGADVNAQDKFGKTAFDTSIDNGSEDLAEILQKLN
- response [1, 3]: 0.75 AU
- response [2, 5]: 0.57 AU
